Assay results reported in US10287554B2, “Induced pluripotent stem cell model for Fabry disease and use thereof” (KOREA ADVANCED INSTITUTE OF SCIENCE AND TECHNOLOGY, priority 2013, dated 2019).

Key:
Type in all cases: cell-based, human
Conditions in all cases: 10 μg/ml for 5 days, compared with before treatment (FIG. 15)
[1] = system: FB-iPSCs (Fabry disease patient originated iPSCs); assay: Gb3 deposit by anti-Gb3 immunofluorescent staining in FB-iPSCs after Fabrazyme treatment
Method: (§1) Particularly, the FB-iPSCs prepared in Example <1-2> were treated with phosphate buffered saline (PBS) containing 4% formaldehyde, followed by fixing at room temperature for 15 minutes. The cells were treated with 0.1% triton X-100 to give permeability to the cell membrane. After the treatment, the cells were added with 4% normal donkey serum, followed by blocking at room temperature for 1 hour. The cells were treated with the primary antibody such as anti-OCT4 antibody (1:300, R&D Systems, USA), anti-NANOG antibody (1:300, Cell signaling technology, USA), anti-SSEA-4 antibody (1:300, R&D Systems, USA), anti-SOX2 rabbit antibody (BD Transduction Laboratories, USA), anti-Tra-1-81 antibody (1:300, Millipore, USA) or anti-Tra-1-60 antibody (1:300, Millipore, USA), followed by culture overnight at 4° C. Then, the cells were washed several times with PBST (PBS containing 0.1% Tween-20). The cells were treated with Alexa Fluor 488 or Alexa Fluor 594-conjugated secondary antibody (Invitrogen, USA), followed by further culture for 1 hour, leading to immunofluorescent staining of FB-iPSCs.
To investigate whether or not the pharmacologic treatment during the FB-iPSC differentiation was effective in improving Fabry disease, the differentiation of vascular cells was induced from FB-iPSCs and then the cells were treated with Fabrazyme, the α-galactosidase recombinant protein. […]

[2] = system: vascular endothelial cells differentiated from FB-iPSCs; assay: Gb3 deposit by anti-Gb3 immunofluorescent staining in FB-iPSC originated vascular endothelial cells after Fabrazyme treatment
Method: as §1
(§2) Particularly, the FB-iPSCs developed by the same manner as described in Example <1-2> were chopped in even sizes of 300˜500 μm in diameter by using a 10 μl syringe needle. […]

[3] = system: vascular smooth muscle cells differentiated from FB-iPSCs; assay: Gb3 deposit by anti-Gb3 immunofluorescent staining in FB-iPSC originated vascular smooth muscle cells after Fabrazyme treatment
Method: as §1, §2

B1: Fabrazyme: the α-galactosidase recombinant protein (GLA recombinant protein), belonging to agalsidase beta (protein, UniProt P06280 32-429, looked up)
Alpha-galactosidase A: LDNGLARTPTMGWLHWERFMCNLDCQEEPDSCISEKLFMEMAELMVSEGWKDAGYEYLCIDDCWMAPQRDSEGRLQADPQRFPHGIRQLANYVHSKGLKLGIYADVGNKTCAGFPGSFGYYDIDAQTFADWGVDLLKFDGCYCDSLENLADGYKHMSLALNRTGRSIVYSCEWPLYMWPFQKPNYTEIRQYCNHWRNFADIDDSWKSIKSILDWTSFNQERIVDVAGPGGWNDPDMLVIGNFGLSWNQQVTQMALWAIMAAPLFMSNDLRHISPQAKALLQDKDVIAINQDPLGKQGYQLRQGDNFEVWERPLSGLAWAVAMINRQEIGGPRSYTIAVASLGKGVACNPACFITQLLPVKRKLGFYEWTSRLRSHINPTGTVLLQLENTMQMSLKDLL
Question: Which Gb3 deposit [1] does the source give for B1 here?
Answer: significantly reduced and hardly detected

Question: What about the Gb3 deposit [2] of the same molecule?
Answer: significantly reduced and hardly detected

Question: And the Gb3 deposit [3]?
Answer: significantly reduced and hardly detected
